Kd data for 1 molecule are collected here from doi:10.1101/780452, “Development of c-type lectin oriented surfaces for high avidity glycoconjugates: towards mimicking multivalent interactions on the cell surface” (bioRxiv, 2019).

The assay has as its target T1, BSA-Man (glycoprotein bearing 12 glycosylated sites) (bovine (from the name BSA), UniProt P02769 25-607, 12 glycosylated sites (mannose glycans, up to 12 glycans displayed)).
T1 construct: BSA (serum albumin) carrying mannose glycans; A neoglycoprotein; also called Man-BSA
The assay is described as follows: SPR; BSA-Man titrated over a DC-SIGN S-ECD oriented surface (StrepTactin-functionalised CM3 chip, Biacore T200); 25 mM Tris pH 8, 150 mM NaCl, 4 mM CaCl2, 0.05% P20; steady state affinity model; apparent KD for the surface. Particulars: both partners purified.

T1 sequence (P02769 25-607): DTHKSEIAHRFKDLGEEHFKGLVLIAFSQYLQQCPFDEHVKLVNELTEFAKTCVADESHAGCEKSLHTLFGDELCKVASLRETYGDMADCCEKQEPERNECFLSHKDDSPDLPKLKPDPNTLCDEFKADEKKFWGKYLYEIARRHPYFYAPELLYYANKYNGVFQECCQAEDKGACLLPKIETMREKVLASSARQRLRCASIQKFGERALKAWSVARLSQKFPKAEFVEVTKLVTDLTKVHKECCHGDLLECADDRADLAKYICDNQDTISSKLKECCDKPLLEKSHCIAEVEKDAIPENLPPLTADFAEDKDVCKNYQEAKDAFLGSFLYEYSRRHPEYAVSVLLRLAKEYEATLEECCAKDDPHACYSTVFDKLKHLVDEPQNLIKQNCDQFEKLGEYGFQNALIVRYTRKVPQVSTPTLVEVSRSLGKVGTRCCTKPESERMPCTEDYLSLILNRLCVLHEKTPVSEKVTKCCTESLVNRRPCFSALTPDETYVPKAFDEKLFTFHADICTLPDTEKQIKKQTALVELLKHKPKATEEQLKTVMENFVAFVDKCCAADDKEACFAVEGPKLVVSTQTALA

B1: DC-SIGN S-ECD (DC-SIGN extracellular domain tagged at its N-terminus with a StreptagII) (domain or fragment, UniProt Q9NNX6 66-404, looked up)
chain: SISQEQSRQDAIYQNLTQLKAAVGELSEKSKLQEIYQELTQLKAAVGELPEKSKLQEIYQELTRLKAAVGELPEKSKLQEIYQELTWLKAAVGELPEKSKMQEIYQELTRLKAAVGELPEKSKQQEIYQELTRLKAAVGELPEKSKQQEIYQELTRLKAAVGELPEKSKQQEIYQELTQLKAAVERLCHPCPWEWTFFQGNCYFMSNSQRNWHDSITACKEVGAQLVVIKSAEEQNFLQLQSSRSNRFTWMGLSDLNQEGTWQWVDGSPLLPSFKQYWNRGEPNNVGEEDCAEFSGNGWNDDKCNLAKFWICKKSAASCSRDEEQFLSPAPATPNPPPA
notes: DC-SIGN (Dendritic Cell specific ICAM-3 Grabbing Non-integrin), extracellular domain, amino acids 66-404; A factor Xa cleavage site lies between the N-terminal StreptagII and the ECD; On the chip the protein was captured by StrepTactin and then covalently fixed with EDC/NHS; source: E. coli Rosetta (DE3), inclusion bodies, purified (StrepTactin column, Mannan-agarose, Superose-12); not shown: …
As to B1, the Kd is 5 nM.
